Test results taken from paper PMC4058081, “p600 regulates spindle orientation in apical neural progenitors and contributes to neurogenesis in the developing neocortex” (Biology Open, 2014).

Key:
[1] = target: the molecule itself; assay: static light scattering; Ndel1^1–201 alone in solution; data not included
[2] = target: T1, recombinant p600^4480–5183 (human, UniProt Q5T4S7 4480-5183); assay: SEC; analytical SEC, Superdex 200 5/150, 4°C, 10 mM HEPES pH 7.5, 0.15 M NaCl, 1 mM DTT; proteins alone or mixed at 50 µM and incubated 30 min on ice; fractions analysed by SDS-PAGE; conditions: both partners purified
T1 construct: Elutes mostly as a monomer (~75 kDa) in SEC; also called C-terminal portion of p600; source: E. coli BL21-Rosetta, purified (glutathione sepharose, PreScission cleavage, Resource Q)
T1 sequence (Q5T4S7 4480-5183): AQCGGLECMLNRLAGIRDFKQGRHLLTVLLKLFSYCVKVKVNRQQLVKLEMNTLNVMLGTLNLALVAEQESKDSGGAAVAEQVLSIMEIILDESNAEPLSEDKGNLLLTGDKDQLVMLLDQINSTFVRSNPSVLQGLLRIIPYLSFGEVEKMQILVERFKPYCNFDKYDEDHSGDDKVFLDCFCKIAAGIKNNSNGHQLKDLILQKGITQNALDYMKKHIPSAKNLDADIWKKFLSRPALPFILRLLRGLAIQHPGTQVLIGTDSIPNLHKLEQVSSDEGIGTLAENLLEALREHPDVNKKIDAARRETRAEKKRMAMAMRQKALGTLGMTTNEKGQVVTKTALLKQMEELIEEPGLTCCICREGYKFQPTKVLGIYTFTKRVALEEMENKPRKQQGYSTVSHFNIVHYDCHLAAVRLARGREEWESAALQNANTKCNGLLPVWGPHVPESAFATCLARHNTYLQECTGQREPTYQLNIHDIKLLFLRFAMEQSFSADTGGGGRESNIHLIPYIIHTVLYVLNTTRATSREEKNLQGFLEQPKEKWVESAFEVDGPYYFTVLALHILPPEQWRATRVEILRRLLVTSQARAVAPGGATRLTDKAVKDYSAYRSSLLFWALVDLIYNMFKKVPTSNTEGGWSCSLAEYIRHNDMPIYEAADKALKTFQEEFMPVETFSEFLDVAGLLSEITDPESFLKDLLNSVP

B1: Ndel1^1–201 (coiled-coil region of Ndel1) (domain or fragment, UniProt Q9GZM8 1-201, looked up)
chain: MDGEDIPDFSSLKEETAYWKELSLKYKQSFQEARDELVEFQEGSRELEAELEAQLVQAEQRNRDLQADNQRLKYEVEALKEKLEHQYAQSYKQVSVLEDDLSQTRAIKEQLHKYVRELEQANDDLERAKRATIVSLEDFEQRLNQAIERNAFLESELDEKESLLVSVQRLKDEARDLRQELAVRERQQEVTRKSAPSSPTL
notes: Dimeric in solution by static light scattering (data not included); also called N-terminal coiled-coil domain of Ndel1; source: E. coli BL21-Rosetta, purified (Ni-NTA, ion exchange)
[1]
  stoichiometry N: 2
[2]
  Kd: 30 to 50 µM
